These results are taken from paper PMC4361764, “TatBC-Independent TatA/Tat Substrate Interactions Contribute to Transport Efficiency” (PLoS ONE, 2015).

The data set deals with the molecule itself. Nature of the data set: SEC; TatA-strep purified from the soluble fraction (Strep-Tactin), Superose 6, 10 mM Hepes pH 8.0, 150 mM NaCl, no detergent; Western blot of elution fractions.

B1: Strep-tagged TatA from Escherichia coli (natural protein, UniProt P69428 1-89, looked up)
chain: MGGISIWQLLIIAVIVVLLFGTKKLGSIGSDLGASIKGFKKAMSDDEPKQDKTSQDADFTAKTIADKQADTNQEQAKTEDAKRHDKEQV
notes: TatA of Escherichia coli; The soluble form is a large association of many protomers; also called TatA-strep; soluble TatA-strep; source: E. coli DADE tatA-strep-tatBC (single-copy, wild-type level): in crude soluble extract; or purified from the soluble fraction (Strep-Tactin, Superose 6); not shown: Strep-tag, C-terminal, kept
With B1, the binding result is “binds”.
